Values quoted from earlier work in publication PMC10979411.

Target: Nterm (UniProt position 44, ADPEAGIGAVL)
Test: NMR
Details: micelle-associated melittin

## Melittin (Apis mellifera (inferred; organism not stated in the article))
  pKa: 7.15–8.15
